B1: TPR t1 (parent)
chain: GACCAAUCUGCCCUCAGAGCUCGAGAACAUCUUCGGAUGCAGAGGAGGCAGGCUUCGGUGGCGCGAUAGCGCCAACGUCCUCAACCUCCAAUGCAUCCCACCACAUGAUGAUGCCUGAAGAGCCUUGGUUUUUUG

In this series the parent is B1. Description: polymerase ribozyme fitness, log enrichment relative to wild type (log ratio); higher = more active; in vitro selection for triplet polymerase activity. The procedure, abridged:
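Libraries of mutants in each subunit of a heterodimeric triplet polymerase ribozyme were generated by PCR and transcribed. In triplicate, each went through one in vitro selection round: annealing with biotinylated primer, partner subunit and triplets; frozen incubation at −7 °C; gel excision of extended constructs; streptavidin-bead capture; RT-PCR. Fitness, taken from Illumina sequencing of input and output libraries, is the logarithm of a genotype's enrichment over wild-type enrichment, averaged across replicates with inverse-variance weights. The logarithm is base 2, and genotypes needed ≥10 input reads and ≥1 read per output to be kept.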
Take A26G C34A G44A C124U: the “polymerase ribozyme fitness (log ratio)” value was -3.54.
The value for A2C C72A C114G was -4.02.
With A5C U87G U96G C104U A121C the figure was 0.96; with G71U U129G, -0.793; with A41U A46U C89G A121C, -7.24.
The value for C15A G61A C85U C98G A105G U109A C124U was -6.62; that for C101U G113A was -1.2.
In the case of A6C C8A U32C A84U A90G G110C C114U, the “polymerase ribozyme fitness (log ratio)” value was -5.68.
The value for A2U U106A U129C was -1.74; that for U87G C102U was -0.897.
The value for C22U A46U G69U G117A was -4.33; that for G19A G42A was -3.26; that for A74C was -0.272.
As to C4U A68G, the “polymerase ribozyme fitness (log ratio)” value is -3.11.
On to C15U A26U, for which the “polymerase ribozyme fitness (log ratio)” value is -5.06.
With G117U U126G the figure was -5.92; with U55G G69C, -1.57; with A27G C34U C72U C86A U112A U133C, -2.87.
For U112G G128U, the “polymerase ribozyme fitness (log ratio)” value is -2.4.
With C34U U112C C124A the figure was -1.63; with C40U G61C, -2.59.
With C82U A95C U106A the figure was -0.318; with C20A G61C, -4.5.
With C3G A27U G52A C72U U129A the figure was -4.63; with U7A G110C, -3.41.
C70G G77A: the “polymerase ribozyme fitness (log ratio)” value is -1.74.
In the case of U38A G71A U129A, the “polymerase ribozyme fitness (log ratio)” value was -3.95.
With G71A C123G the figure was 1.1.
C28G C56A G110U C124U: the “polymerase ribozyme fitness (log ratio)” value was -0.0721.
C88G G113C: the “polymerase ribozyme fitness (log ratio)” value was -2.74.
A41G G45A A83C: the “polymerase ribozyme fitness (log ratio)” value was -1.53.
With G107U the figure was -4.78; with A6U C56G C76U C86A A90G, -1.7; with G77A G93A A100G U112C U131A, -2.12.
The value for G42U G120A was -1.14.
Regarding A18U C79G G110A, the “polymerase ribozyme fitness (log ratio)” value is -6.
As for C4U C8G C53U, the “polymerase ribozyme fitness (log ratio)” value turned out to be 0.711.
With A37U C82G G110C the figure was -6.53.
Consider U134G, for which the “polymerase ribozyme fitness (log ratio)” value turned out to be 0.625.
With A46G C56A, the “polymerase ribozyme fitness (log ratio)” value was -0.525.
With C3G G61U C94A A95C C124A U132C U133C the figure was -3.25; with C73G G120C U130A, -0.0194.
For C3G G57A G60A A111C, the “polymerase ribozyme fitness (log ratio)” value is -2.99.
With G47C A111C A118C the figure was -2.36.
With C80A C94A U112C, the “polymerase ribozyme fitness (log ratio)” value is -2.27.
The value for A50U C123U was 0.00244; that for U78C C80A was -1.94.
The value for G44A G57U C85U C104A U109A G120C was -4.62.
In the case of A41C C123A G128U, the “polymerase ribozyme fitness (log ratio)” value is -2.19.
The value for G44U U129A U131A was -3.84.
As to G42A C70U G117A, the “polymerase ribozyme fitness (log ratio)” value is -4.31.
Take G69U A75U C101U G113C U129A: the “polymerase ribozyme fitness (log ratio)” value was -2.36.
As to G69U C98G, the “polymerase ribozyme fitness (log ratio)” value is -2.4.
On to G35A G77U, for which the “polymerase ribozyme fitness (log ratio)” value was -3.89.
The value for A18U C49U C102U G117A was -7.34.
For the variant U92A C102G G113C, the “polymerase ribozyme fitness (log ratio)” value was -6.86.
With A29C A50U the figure was -2.67; with G52A G71C G93C, -5.59; with A6C C88U, -0.228.
Regarding G10A U38C G45A C79U, the “polymerase ribozyme fitness (log ratio)” value is -1.29.
Regarding U9G C12G U78C, the “polymerase ribozyme fitness (log ratio)” value is 0.323.
For the variant G113A A121G, the “polymerase ribozyme fitness (log ratio)” value was -0.104.
C3A G17U: the “polymerase ribozyme fitness (log ratio)” value was -4.27.
The value for G17A C72U A90U A121G was 0.0637; that for C11U A26U G52C G61U was -2.85; that for G35A C101G was -5.52.
On to C73U C123G, for which the “polymerase ribozyme fitness (log ratio)” value worked out at 2.14.
With G39A A43U C72G the figure was -1.83; with C4G C8G, -0.396.
For the variant G69U C102G A119G, the “polymerase ribozyme fitness (log ratio)” value was -2.01.
On to A6U A103G, for which the “polymerase ribozyme fitness (log ratio)” value is -4.63.
The value for C12G A121C was 1.5.
In the case of G47U U112A, the “polymerase ribozyme fitness (log ratio)” value turned out to be 0.352.
As for A43G C89U, the “polymerase ribozyme fitness (log ratio)” value was -1.2.
With U78C C101U G120U A121U U132A the figure was 1.42; with G65U C123G, -4.68; with C8G C20U U81G, -4.46.
With C8G U81A, the “polymerase ribozyme fitness (log ratio)” value came out at 0.387.
With C3G G113A the figure was -3.52; with C102A G110A, -4.38; with G93A U131C, -0.974.
Regarding A90G A103U A119G, the “polymerase ribozyme fitness (log ratio)” value was -3.56.
For the variant C8U A100C, the “polymerase ribozyme fitness (log ratio)” value was -0.899.
